The numbers were not newly measured in paper PMC6307816, which cites them from elsewhere.

This series has as its target EGFR (Homo sapiens) (UniProt P00533).

The term Kd denotes the equilibrium constant for the complex coming apart. As for EGF (from UniProt P01133), the Kd is under 0.2 nM.
